Source: patent US20260226179A1 (MAB DESIGNS, published 2026)
Changes are numbered by the printed parent chain. Several values for one entry are separate records, joined by “and”; a condition that tells them apart may be missing. Equal entries are not always repeated. Values belong to the binder of their own block, whether it stands above or below them.

Columns and labels:
Experiment in all cases: cell-based or functional assay
[1] = biological target: T1, human membrane-bound IL-6R subunit alpha (human, UniProt P08887 20-468)
T1 sequence: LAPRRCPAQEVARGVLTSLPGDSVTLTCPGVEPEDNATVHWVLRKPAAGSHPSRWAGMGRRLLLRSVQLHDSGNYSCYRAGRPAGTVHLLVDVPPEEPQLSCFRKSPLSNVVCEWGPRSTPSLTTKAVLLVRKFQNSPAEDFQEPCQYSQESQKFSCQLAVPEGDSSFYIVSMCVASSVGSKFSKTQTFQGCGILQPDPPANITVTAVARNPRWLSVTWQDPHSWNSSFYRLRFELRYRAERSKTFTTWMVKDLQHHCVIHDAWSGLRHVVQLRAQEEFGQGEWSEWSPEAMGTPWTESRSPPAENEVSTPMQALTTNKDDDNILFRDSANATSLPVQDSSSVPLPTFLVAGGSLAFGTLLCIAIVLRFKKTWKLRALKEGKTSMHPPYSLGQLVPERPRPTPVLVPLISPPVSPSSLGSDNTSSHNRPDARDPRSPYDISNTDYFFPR

human soluble IL-6R [2] = biological target: T2, human soluble IL-6R (human, UniProt P08887 20-357)
T2 sequence: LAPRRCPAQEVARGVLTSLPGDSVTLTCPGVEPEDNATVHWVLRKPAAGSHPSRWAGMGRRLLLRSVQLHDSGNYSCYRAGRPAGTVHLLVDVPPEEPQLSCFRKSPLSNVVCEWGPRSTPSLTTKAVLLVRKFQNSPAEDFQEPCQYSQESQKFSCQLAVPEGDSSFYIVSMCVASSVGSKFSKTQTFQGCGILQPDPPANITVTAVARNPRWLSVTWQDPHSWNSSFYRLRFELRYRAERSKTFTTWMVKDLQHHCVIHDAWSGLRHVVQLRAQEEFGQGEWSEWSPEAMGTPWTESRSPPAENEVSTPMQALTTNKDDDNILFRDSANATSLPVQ

human soluble IL-6R [3] = biological target: T2, human soluble IL-6R; remark: listed apart in the source
human soluble IL-6R [4] = biological target: T2, human soluble IL-6R; remark: listed apart in the source
[5] = biological target: T1, human membrane-bound IL-6R subunit alpha; remark: listed apart in the source
[6] = biological target: Hyper-IL-6 (recombinant fusion protein consisting of IL-6 and soluble IL-6R)
human soluble IL-6R [7] = biological target: T3, human soluble IL-6R (human, UniProt P08887 20-357, limits assumed)
T3 sequence: T2 sequence

Proliferation in % (Ba/F3_gp130_IL-6R cells, IL-6 + sIL-6R = 100%; combined IL-6 classical and trans signalling; 1% PE) [1]: 61.6%
Proliferation in % (Ba/F3_gp130 cells, IL-6 + sIL-6R = 100%; IL-6 trans signalling; 1% PE) (human soluble IL-6R [2]): 47.9%
Classical:trans signalling ratio proliferation (human soluble IL-6R [3]): 1.3 ratio
Classical:trans signalling ratio intracellular signalling (human soluble IL-6R [4]): 2.1 ratio
Residual STAT3 phosphorylation in HEK293 (IL-6 + sIL-6R; IL-6 trans signalling; 1% PE) (human soluble IL-6R [4]): 42%
Residual STAT3 phosphorylation in HEK293_IL-6R (IL-6 + sIL-6R; combined classical and trans signalling; 1% PE) [5]: 90%
B1: candidate anti-IL-6R Fab clone 12 (Fab, V domains shown)
VH: EVKLMESGGGLVQPGGSLKLSCAASGFTFSNYGMSWVRQTPDKRLEWVANINSNGGSTYYPDSVKGRFTISRDNAQNTLYLQMSSLKSEDTAMYYCTRDGNFVSDYWGQGTTLTVSS
VL: DIVLTQSPASLAVSPGQRATISCRASESVDSYGNSFMNWYQQKPGQPPKLLIYLASNLESGVPARFSGSGSRTDFTLTIDPVEADDAATYYCQQNNEDPYTFGGGTKLEIK

Proliferation in % (Ba/F3_gp130_IL-6R cells, IL-6 + sIL-6R = 100%; combined IL-6 classical and trans signalling; 1% PE) [1]: 73.3%
Proliferation in % (Ba/F3_gp130 cells, IL-6 + sIL-6R = 100%; IL-6 trans signalling; 1% PE) (human soluble IL-6R [2]): 53.3%
Classical:trans signalling ratio proliferation (human soluble IL-6R [3]): 1.4 ratio
Classical:trans signalling ratio intracellular signalling (human soluble IL-6R [4]): 3 ratio
Residual STAT3 phosphorylation in HEK293 (IL-6 + sIL-6R; IL-6 trans signalling; 1% PE) (human soluble IL-6R [4]): 24%
Residual STAT3 phosphorylation in HEK293_IL-6R (IL-6 + sIL-6R; combined classical and trans signalling; 1% PE) [5]: 72%
B3: candidate anti-IL-6R Fab clone 19 (Fab, V domains shown)
VH: EVKLMESGGGLVQPGGSLKLSCAASGFTFSNYGMSWVRQTPDKRLELVAIMNSKGGSTYYPDSVMGRFTISRDNAKNTLYLQMSSLKSEDTAMYYCARDGYYTMDYWGQGTSVTVSS
VL: B1 VL with P15L, E27K, Y32F, N38H, P47S, K49R, Y53F

Proliferation in % (Ba/F3_gp130_IL-6R cells, IL-6 + sIL-6R = 100%; combined IL-6 classical and trans signalling; 1% PE) [1]: 86.1%
Proliferation in % (Ba/F3_gp130 cells, IL-6 + sIL-6R = 100%; IL-6 trans signalling; 1% PE) (human soluble IL-6R [2]): 55.7%
Classical:trans signalling ratio proliferation (human soluble IL-6R [3]): 1.5 ratio
Classical:trans signalling ratio intracellular signalling (human soluble IL-6R [4]): 2.8 ratio
Residual STAT3 phosphorylation in HEK293 (IL-6 + sIL-6R; IL-6 trans signalling; 1% PE) (human soluble IL-6R [4]): 28%
Residual STAT3 phosphorylation in HEK293_IL-6R (IL-6 + sIL-6R; combined classical and trans signalling; 1% PE) [5]: 77%
B5: candidate anti-IL-6R Fab clone 07 (Fab, V domains shown)
VH: B3 VH with M5V, N31S, G33A, P41A, I50N, M51I, K54N, M65K, Y80F, D99E
VL: B1 VL

The next lines start with the binder.

B2: anti-IL-6R Fab C20 (purified Fab fragment of C20) (Fab, V domains shown)
VH: B1 VH with W47L, N50I, Q76K, M93I, T97A
VL: B1 VL with P15L, S35R, M37L
IC50 of inhibition of proliferation of Ba/F3_gp130 cells induced by 28 ng/ml Hy-IL-6 [6]: 98 ng/ml and 1.9 nM
IC50 of inhibition of proliferation of Ba/F3_gp130 cells induced by 10 ng/ml IL-6 and 200 ng/ml sIL-6R (human soluble IL-6R [7]): 159 ng/ml and 3.2 nM

B4: candidate anti-IL-6R Fab clone 20 (Fab, V domains shown)
VH: B1 VH with W47L, N50I, Q76K, M93I, T97A
VL: B1 VL with P15L, S35R, M37L
Proliferation in % (Ba/F3_gp130_IL-6R cells, IL-6 + sIL-6R = 100%; combined IL-6 classical and trans signalling; 1% PE) [1]: 81.9%
Proliferation in % (Ba/F3_gp130 cells, IL-6 + sIL-6R = 100%; IL-6 trans signalling; 1% PE) (human soluble IL-6R [2]): 36.6%
Classical:trans signalling ratio proliferation (human soluble IL-6R [3]): 2.2 ratio
Classical:trans signalling ratio intracellular signalling (human soluble IL-6R [4]): 3 ratio
Residual STAT3 phosphorylation in HEK293 (IL-6 + sIL-6R; IL-6 trans signalling; 1% PE) (human soluble IL-6R [4]): 32%
Residual STAT3 phosphorylation in HEK293_IL-6R (IL-6 + sIL-6R; combined classical and trans signalling; 1% PE) [5]: 97%
